Data on six compounds can be found in publication PMC10924156, “Design, Preclinical Evaluation, and Clinical Translation of ^68Ga-FAPI-LM3, a Heterobivalent Molecule for PET Imaging of Nasopharyngeal Carcinoma” (Journal of Nuclear Medicine, 2024).

Like-named read-outs stand apart in the source and are kept apart here. Starred links: 1 amine or outer side, 2 acyl side, 3 side chain; linkers in the order of their positions; H or OH if unused. Positions of bridges follow the written chain, without caps; N, C: chain ends. Non-standard residues stand in square brackets, D forms with d. Residues, ends and D or L forms follow the SMILES beside them. *: point of attachment. X1 = CN(CCCN1CCN(*)CC1)c1ccc2nccc(C(=O)NCC(=O)N3CC(F)(F)C[C@H]3C#N)c2c1; DOTA = O=C(O)CN1CCN(CC(=O)O)CCN(CC(=O)*)CCN(CC(=O)O)CC1; dPhe(4-NHCONH2) = NC(=O)Nc1ccc(C[C@@H](N)C(=O)O)cc1; Phe(4-Cl) = N[C@@H](Cc1ccc(Cl)cc1)C(=O)O; Suc = O=C(CCC(=O)[*:2])[*:1]; AEEEA = NCCOCCOCCOCC(=O)O

In data set [1] the target is T1, SSTR2 (Homo sapiens, UniProt P30874).
T1 construct: expressed in transfected cells
The experiment in a line: SSTR2 receptor binding assay on HT-1080-SSTR2 cells. Conditions: read-out: half-maximal inhibitory concentration, SSTR2 binding. The protocol: (§1) Information on cell resources, transfection, and culture is provided in the supplemental materials. For in vitro studies, the cells were seeded in 24-well plates and cultured in a routine medium until they reached approximately 80% confluence. During the experiment, the medium was replaced with a fetal bovine serum–free medium. […] After a 60-min incubation period, the free tracer was removed using phosphate-buffered saline before measurement. The cells were lysed with 0.5 mL of 1 M NaOH, and radioactivity was subsequently gauged using a γ-counter (Wizard 2480; PerkinElmer Inc.).

Data set [2] relates to HT-1080-FAP–plus–HT-1080-SSTR2 xenografts. Conditions: mouse.
Protocol: (§2) Tumor-bearing mice (3/group) were intravenously injected with approximately 7.4 MBq of ^68Ga-FAPI-LM3, ^68Ga-FAPI-46, or ^68Ga-DOTA-LM3. Subsequent static PET scans were obtained at intervals of 0.5, 1, 2, and 4 h after injection using an Inveon small-animal PET scanner (Siemens). In the blocking experiment, approximately 60 nmol of the unlabeled precursor (FAPI-46, DOTA-LM3, or FAPI-46 plus DOTA-LM3) were simultaneously injected with ^68Ga-FAPI-LM3. The PET images were reconstructed iteratively using 3-dimensional OpMAP 256 (PET reconstruction protocol [.pPetRcn]; Siemens Healthineers AG) and converted to percentage injected dose per gram of tissue (%ID/g) by delineating the regions of interest. For the biodistribution studies, approximately 1.48 MBq of ^68Ga-FAPI-LM3, ^68Ga-FAPI-46, ^68Ga-DOTA-LM3, or ^68Ga-FAPI-LM3 with unlabeled precursor were injected into tumor-bearing mice (3/group), and different groups of mice were euthanized at the scheduled time points after injection.
The nature of data set [3]: in vivo. Conditions: BALB/c nude, mouse, 1.48 MBq, total radioactivity.
Protocol: as §2
A short description of data set [4]: in vivo. As to conditions: BALB/c nude, mouse, iv, 7.4 MBq, total radioactivity, tumor uptake (PET).
Protocol: as §2
Data set [5] has as its system HT-1080-FAP–plus–HT-1080-SSTR2 tumor xenograft. Nature of the data set: Small-animal PET imaging. As to conditions: 1 h after injection.
Protocol: as §2
The nature of a further data set: in vitro. Conditions: serum. The class given is in vitro ADME, bovine. The protocol:
Information regarding the reagents, chemicals, high-performance liquid chromatography, liquid chromatography–mass spectrometry, and flow diagram of the synthesis of FAPI-LM3 are provided in the supplemental materials (available at http://jnm.snmjournals.org ([16])). The radiolabeling of FAPI-46, DOTA-LM3, and FAPI-LM3 precursors with ^68Ga was performed following similar procedures. In brief, 25 nmol of the precursor in 1 mL of sodium acetate buffer (0.25 M, pH 8.2–8.3) was allowed to react with 4 mL of ^68Ga solution (1.3 GBq in 0.6 M HCl) at 100°C for 15 min. For clinical imaging, the final product was passed through a 0.22-μm Millipore filter for sterilization in each ^68Ga-FAPI-LM3 preparation process. The stability of ^68Ga-FAPI-LM3 was determined by incubating the product in phosphate-buffered saline and fetal bovine serum at 37°C and analyzing it via radio–high-performance liquid chromatography after 1 and 2 h of incubation.

For data set [6] the following is noted: human, in vivo.
The test system of data set [7] is HT-1080-FAP, HT-1080-SSTR2, HT-1080-FAP–plus–HT-1080-SSTR2, C666-1, U87MG cells. Nature of the data set: Cellular uptake test and blocking experiments. The class given is cell-based, human. As to conditions: 60 min, with 10 nmol unlabeled FAPI-46, DOTA-LM3 or both; all P < 0.05. The protocol: as §1
A further data set in a line: clinical. As to conditions: human, in vivo, total radioactivity; for SUV: Median SUVmax; for SUV at 1 h: SUVmax.
The test system of data set [8] is nasopharyngeal carcinoma lesions. As to conditions: human, in vivo.
A further data set addresses T2, human FAP (Homo sapiens, UniProt Q12884).
T2 construct: expressed in transfected cells
T2 sequence (Q12884 1-760): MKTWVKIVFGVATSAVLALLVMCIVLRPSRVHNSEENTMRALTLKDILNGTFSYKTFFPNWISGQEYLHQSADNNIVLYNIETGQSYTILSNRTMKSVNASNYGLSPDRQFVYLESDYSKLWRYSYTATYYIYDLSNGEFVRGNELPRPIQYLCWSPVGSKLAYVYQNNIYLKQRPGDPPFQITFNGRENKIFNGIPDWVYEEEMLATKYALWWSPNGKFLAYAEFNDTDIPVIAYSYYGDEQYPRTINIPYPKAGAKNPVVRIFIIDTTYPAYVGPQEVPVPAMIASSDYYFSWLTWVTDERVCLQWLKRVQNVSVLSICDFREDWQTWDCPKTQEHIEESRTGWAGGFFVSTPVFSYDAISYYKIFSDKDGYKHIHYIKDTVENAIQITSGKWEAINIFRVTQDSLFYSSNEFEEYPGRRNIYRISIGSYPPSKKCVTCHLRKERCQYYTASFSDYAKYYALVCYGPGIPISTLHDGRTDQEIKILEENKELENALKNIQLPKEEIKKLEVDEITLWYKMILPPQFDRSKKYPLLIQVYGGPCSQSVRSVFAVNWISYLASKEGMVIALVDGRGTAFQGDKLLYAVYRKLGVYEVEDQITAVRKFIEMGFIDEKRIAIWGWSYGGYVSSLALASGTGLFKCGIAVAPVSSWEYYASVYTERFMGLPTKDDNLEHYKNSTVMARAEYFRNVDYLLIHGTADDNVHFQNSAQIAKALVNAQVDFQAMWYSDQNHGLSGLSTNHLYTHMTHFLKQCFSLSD
The experiment in a line: FAP radioligand binding assay on HT-1080-FAP cells. Conditions: read-out: half-maximal inhibitory concentration, FAP binding. The protocol:
as §1

For data set [9], the system named is SSTR2. As to conditions: cited from earlier work. From the text: Within the domain of nuclear medicine, several targets, such as somatostatin receptor 2 (SSTR2), prostate-specific membrane antigen, and FAP, have emerged as prominent subjects of research ([7],[8]). Epstein–Barr virus latent membrane protein 1 can upregulate SSTR2 expression via the NF-κB pathway ([9]). Both FAP and SSTR2 are important markers in the biology of NPC, as evidenced by the plethora of such PET radiopharmaceuticals, including ^68Ga-FAPI for imaging cancer-associated fibroblasts and ^68Ga-DOTATATE for imaging SSTR2 ([10],[11]).

T1 sequence (P30874 whole entry): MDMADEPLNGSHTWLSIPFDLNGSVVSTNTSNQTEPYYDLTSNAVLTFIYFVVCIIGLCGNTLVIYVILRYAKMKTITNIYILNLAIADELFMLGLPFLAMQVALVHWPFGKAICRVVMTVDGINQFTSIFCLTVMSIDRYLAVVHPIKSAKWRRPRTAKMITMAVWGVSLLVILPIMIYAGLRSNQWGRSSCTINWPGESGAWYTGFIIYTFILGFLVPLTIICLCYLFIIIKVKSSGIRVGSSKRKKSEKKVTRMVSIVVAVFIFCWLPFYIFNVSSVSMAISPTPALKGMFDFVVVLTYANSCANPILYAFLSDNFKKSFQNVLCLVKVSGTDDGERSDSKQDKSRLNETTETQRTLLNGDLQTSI

On to `C[C@@H](O)[C@@H]1NC(=O)[C@H](CCCCN)NC(=O)[C@@H](Cc2ccc(NC(N)=O)cc2)NC(=O)[C@H](Cc2ccc(O)cc2)NC(=O)[C@H](NC(=O)[C@H](Cc2ccc(Cl)cc2)NC(=O)CN2CCN(CC(=O)O)CCN(CC(=O)O)CCN(CC(=O)O)CC2)CSSC[C@@H](C(=O)N[C@H](Cc2ccc(O)cc2)C(N)=O)NC1=O` [DOTA-LM3, reference compound] ({DOTA}-[Phe(4-Cl)][dC]Y[dPhe(4-NHCONH2)]KTC[dY]-NH2; disulfide 2-7), for which the IC50 at SSTR2 [1] came to 1.3 nM.

A word on the tissue uptake: it is the percentage of the injected dose found per gram of tissue. The term fraction remaining denotes the share of the starting amount still present when the sample was taken. Read a low fraction remaining as a greater loss. `C[C@@H](O)[C@@H]1NC(=O)[C@H](CCCCN)NC(=O)[C@@H](Cc2ccc(NC(N)=O)cc2)NC(=O)[C@H](Cc2ccc(O)cc2)NC(=O)[C@H](NC(=O)[C@H](Cc2ccc(Cl)cc2)NC(=O)[C@H](CCCCNC(=O)CN2CCN(CC(=O)O)CCN(CC(=O)O)CCN(CC(=O)O)CC2)NC(=O)CCC(=O)NCCOCCOCCOCC(=O)N2CCN(CCCN(C)c3ccc4nccc(C(=O)NCC(=O)N5CC(F)(F)C[C@H]5C#N)c4c3)CC2)CSSC[C@@H](C(=O)N[C@H](Cc2ccc(O)cc2)C(N)=O)NC1=O` [^68Ga-FAPI-LM3, metal not drawn] ({X1-AEEEA-Suc}-K(DOTA)[Phe(4-Cl)][dC]Y[dPhe(4-NHCONH2)]KTC[dY]-NH2; disulfide 3-8): the “uptake in blood (ex vivo biodistribution)” value in [2] is given as “high”. Besides, in the data set “in vivo [3]”, the tissue uptake at 1 h was determined as 14.8 ± 0.76 %ID/g and the tissue uptake at 4 h is 17.7 ± 2.46 %ID/g. In addition, in “in vivo [4]”, the tissue uptake at 0.5 h amounted to 14 ± 0.47 %ID/g, the tissue uptake at 1 h was determined as 14.4 ± 0.67 %ID/g, the tissue uptake at 2 h worked out at 14.4 ± 0.68 %ID/g and the tissue uptake at 4 h was found to be 13.8 ± 0.68 %ID/g. Also, the “blockade of tumor uptake” value in [5] (unlabeled DOTA-LM3) was 62%. The “blockade of tumor uptake” value in data set [5] (unlabeled FAPI-46) is given as 63%. Moreover, in data set [5] (unlabeled FAPI-46 plus DOTA-LM3), the “blockade of tumor uptake” value worked out at 93%. In addition, the fraction remaining at 2 h in “in vitro” is > 99%. In [6], the “Effective dose equivalent, Mean” value was determined as 1.20E–03 mSv/MBq; the “dosimetry, Adrenal glands, Mean” value worked out at 5.98E–05 mSv/MBq; the “dosimetry, Brain, Mean” value was found to be 1.63E–06 mSv/MBq; the “dosimetry, Breasts, Mean” value amounted to 3.47E–05 mSv/MBq. Also, in [6], the “dosimetry, Kidneys, Mean” value was found to be 1.08E–04 mSv/MBq; the “dosimetry, LLI wall (lower large intestine), Mean” value amounted to 4.34E–04 mSv/MBq; the “dosimetry, Liver, Mean” value is reported as 1.28E–03 mSv/MBq; the “dosimetry, Lungs, Mean” value is listed as 7.68E–04 mSv/MBq. Further, in [6], the “dosimetry, Muscle, Mean” value is listed as 1.57E–05 mSv/MBq; the “dosimetry, Osteogenic cells, Mean” value is on record as 4.22E–05 mSv/MBq; the “dosimetry, Ovaries, Mean” value came to 3.66E–04 mSv/MBq; the “dosimetry, Pancreas, Mean” value came to 1.23E–04 mSv/MBq. Besides, in data set [6], the “dosimetry, Red marrow, Mean” value was 7.62E–04 mSv/MBq; the “dosimetry, Skin, Mean” value amounted to 6.29E–06 mSv/MBq; the “dosimetry, Small intestine, Mean” value is on record as 2.71E–05 mSv/MBq; the “dosimetry, Spleen, Mean” value turned out to be 1.23E–04 mSv/MBq. Further, in data set [6], the “dosimetry, Stomach wall, Mean” value is 4.04E–04 mSv/MBq; the “dosimetry, Thyroid, Mean” value was found to be 3.68E–06 mSv/MBq; the “dosimetry, ULI wall (upper large intestine), Mean” value stood at 1.53E–05 mSv/MBq; the “dosimetry, Urinary bladder wall, Mean” value came out at 2.14E–03 mSv/MBq. In addition, in data set [6], the “dosimetry, Uterus, Mean” value came out at 2.19E–04 mSv/MBq. For the same compound, the “binding to FAP or SSTR2 with corresponding unlabeled agent” value in [7] is recorded as “significantly blocked”. Moreover, the SUV in “clinical” (Bone mets) was 11.2 SUV. The SUV in the data set “clinical” (Distant LN mets) stood at 16.9 SUV. The SUV in the data set “clinical” (Liver mets) came out at 16.5 SUV. Also, the SUV in the data set “clinical” (Peritoneal mets) was 13.1 SUV. Further, in the data set “clinical” (Pleural mets), the SUV came to 17.3 SUV. Besides, the SUV in “clinical” (Primary) is 13.8 SUV. The SUV in the data set “clinical” (Regional LN mets) stood at 11.4 SUV. The SUV in “clinical” (Total distant metastases) stood at 14.6 SUV. Further, in the data set “clinical” (bone metastases), the SUV at 1 h amounted to 10.4 SUV. Further, the SUV at 1 h in “clinical” (distant lymph node metastases) is 14.5 SUV. Also, the SUV at 1 h in “clinical” (liver metastases) turned out to be 14.3 SUV. In the data set “clinical” (regional lymph node metastases), the SUV at 1 h stood at 10.1 SUV. In addition, in data set [8], the “physiologic uptake in normal organs” value is on record as “intense physiologic uptake”.

Consider `C[C@@H](O)[C@@H]1NC(=O)[C@H](CCCCN)NC(=O)[C@@H](Cc2ccc(NC(N)=O)cc2)NC(=O)[C@H](Cc2ccc(O)cc2)NC(=O)[C@H](NC(=O)[C@H](Cc2ccc(Cl)cc2)NC(=O)[C@H](CCCCNC(=O)CN2CCN(CC(=O)O)CCN(CC(=O)O)CCN(CC(=O)O)CC2)NC(=O)CCC(=O)NCCOCCOCCOCC(=O)N2CCN(CCCN(C)c3ccc4nccc(C(=O)NCC(=O)N5CC(F)(F)C[C@H]5C#N)c4c3)CC2)CSSC[C@@H](C(=O)N[C@H](Cc2ccc(O)cc2)C(N)=O)NC1=O` [FAPI-LM3] ({X1-AEEEA-Suc}-K(DOTA)[Phe(4-Cl)][dC]Y[dPhe(4-NHCONH2)]KTC[dY]-NH2; disulfide 3-8), for which the IC50 at human FAP was 11.7 nM; on SSTR2 [1], 13.2 nM.

For `CN(CCCN1CCN(C(=O)CN2CCN(CC(=O)O)CCN(CC(=O)O)CCN(CC(=O)O)CC2)CC1)c1ccc2nccc(C(=O)NCC(=O)N3CC(F)(F)C[C@H]3C#N)c2c1` [FAPI-46, reference compound], at human FAP (HT-1080-FAP cells, radioligand 68Ga-FAPI-46, 60 min incubation, 8.16 × 10^−5 to 10^−13 M, n = 3), the IC50 was 4.39 nM.

As to “p-Cl-Phe-cyclo(D-Cys-Tyr-D-4-amino-Phe(carbamoyl)-Lys-Thr-Cys)D-Tyr-NH2 (disulfide) [LM3, SSTR2 antagonist peptide]”, in the data set on SSTR2 [9], the “binding affinity to SSTR2” value was “high” and the internalization rate entry was “low”.

Turning to `OC[C@H]1OC(O)[C@H]([18F])[C@@H](O)[C@@H]1O` (stereo partly shown) [^18F-FDG], in [8], the “Median SUVmax, Distant LN mets” value is 8.2 (2.0–9.0); the “Median SUVmax, Peritoneal mets” value is listed as 3.4 (1.5–8.6); the “Median SUVmax, Pleural mets” value is 7.2 (3.7–12.0).
